We go through one substance from paper PMC10512945.

This assay addresses N-terminally GST-tagged human GBF1 (containing the Y828A mutation that confers BFA resistance) (human). The experiment in a line: negative staining electron microscopy; purified GST-GBF1 on glow-discharged carbon grids, washed with 20 mM Bis-Tris pH 7.0, 50 mM NaCl, 1 mM DTT, stained with 1% uranyl formate; 2D class averages from 81,522 particles, compared with AlphaFold-predicted monomers.

In general, stoichiometry N refers to a count of units in the complex or per binding partner. As to “N-terminally GST-tagged human GBF1 (containing the Y828A mutation that confers BFA resistance) (natural protein)”, the stoichiometry N was 2.
